From US20100015130A1 (MIT, published 2010)

B1: Murine DISC1 peptide 3 (15-mer, mDISC1 amino acids 211 to 225) (peptide)
peptide: SFSFIQLSLGAAGER
notes: One of the overlapping 15-mer peptides that cover peptide 2; also called number 43; DISCtide2
B2: Mouse DISC1 peptide 2 (195-238aa) (peptide)
peptide: PADIASLPGFQDTFTSSFSFIQLSLGAAGERGEAEGCLPSREAE
notes: Synthetic peptide (Chi Scientific)

Molecular target: GSK3β as used in the surface plasmon resonance (SPR) binding assays (Homo sapiens (Human), UniProt P49841 1-420)
Sequence (P49841 whole entry, form in doubt): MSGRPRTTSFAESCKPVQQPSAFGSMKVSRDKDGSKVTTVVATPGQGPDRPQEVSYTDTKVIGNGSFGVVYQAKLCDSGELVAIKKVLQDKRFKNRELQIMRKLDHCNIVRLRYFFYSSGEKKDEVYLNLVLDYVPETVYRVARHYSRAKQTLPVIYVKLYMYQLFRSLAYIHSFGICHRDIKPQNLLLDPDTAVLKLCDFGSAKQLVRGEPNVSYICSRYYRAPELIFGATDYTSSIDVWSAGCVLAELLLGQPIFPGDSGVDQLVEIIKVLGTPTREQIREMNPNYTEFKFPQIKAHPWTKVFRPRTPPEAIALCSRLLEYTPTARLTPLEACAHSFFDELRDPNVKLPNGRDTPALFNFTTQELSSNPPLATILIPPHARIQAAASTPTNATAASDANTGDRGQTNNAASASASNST
Assay: SPR, stoichiometry inferred from the response
Method: Surface plasmon resonance (SPR) was used to determine whether peptide 2 directly binds to GSK3β. GSK3β SPR binding assays were carried out with peptide 1, peptide 2, the GSK3β inhibitor L803-MTS, and as a negative control, a peptide from the N-type calcium channel, CACNA1B (FIG. 6A). […] To identify the peptide 2 sequences that mediate this interaction with GSK3β, we designed overlapping 15-mer peptides that covered peptide 2 and tested their binding to GSK3β SPR (FIG. 16B).

Row | Binder | peptide-protein ratio
1 | B1 | 2 peptide:protein
2 | B2 | 2 peptide:protein
